Data: the supplement of paper PMC5998384

Experiments:
HeLa Kyoto [1] = test: solubility change mitosis vs G1/S (difference of NP-40 vs SDS log2 ratios) (log2 ratio difference); higher = more soluble in mitosis
HeLa Kyoto [2] = test: solubility in G1/S (NP-40 vs SDS abundance) (log2 ratio); higher = more soluble; details: cell cycle stage: G1/S
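Throughout, for solubility change mitosis vs G1/S (difference of NP-40 vs SDS log2 ratios): synchronized HeLa Kyoto cells (double thymidine block for G1/S, nocodazole release for mitosis), protein amounts in NP-40 versus SDS lysates quantified by mass spectrometry, three biological replicates.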
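Throughout, for solubility in G1/S (NP-40 vs SDS abundance): HeLa Kyoto cells arrested at G1/S by double thymidine block, proteins quantified by TMT10plex mass spectrometry in mild NP-40 versus SDS extracts, three biological replicates.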

Sequence	solubility change mitosis (log2) (HeLa Kyoto [1])	solubility in G1/S (log2) (HeLa Kyoto [2])
MNYVGQLAGQVFVTVKELYKGLNPATLSGCIDIIVIRQPNGNLQCSPFHVRFGKMGVLRSREKVVDIEINGESVDLHMKLGDNGEAFFVQETDNDQEVIPMHLATSPILSEGASRMECQLKRGSVDRMRGLDPSTPAQVIAPSETPSSSSVVKKRRKRRRKSQLDSLKRDDNMNTSEDEDMFPIEMSSDEAMELLESSRTLPNDIPPFQDDIPEENLSLAVIYPQSASYPNSDREWSPTPSPSGSRPSTPKSDSELVSKSTERTGQKNPEMLWLWGELPQAAKSSSPHKMKESSPLSSRKICDKSHFQAIHSESSDTFSDQSPTLVGGALLDQNKPQTEMQFVNEEDLETLGAAAPLLPMIEELKPPSASVVQTANKTDSPSRKRDKRSRHLGADGVYLDDLTDMDPEVAALYFPKNGDPSGLAKHASDNGARSANQSPQSVGSSGVDSGVESTSDGLRDLPSIAISLCGGLSDHREITKDAFLEQAVSYQQFVDNPAIIDDPNLVVKIGSKYYNWTTAAPLLLAMQAFQKPLPKATVESIMRDKMPKKGGRWWFSWRGRNTTIKEESKPEQCLAGKAHSTGEQPPQLSLATRVKHESSSSDEERAAAKPSNAGHLPLLPNVSYKKTLRLTSEQLKSLKLKNGPNDVVFSVTTQYQGTCRCEGTIYLWNWDDKVIISDIDGTITRSDTLGHILPTLGKDWTHQGIAKLYHKVSQNGYKFLYCSARAIGMADMTRGYLHWVNERGTVLPQGPLLLSPSSLFSALHREVIEKKPEKFKVQCLTDIKNLFFPNTEPFYAAFGNRPADVYSYKQVGVSLNRIFTVNPKGELVQEHAKTNISSYVRLCEVVDHVFPLLKRSHSSDFPCSDTFSNFTFWREPLPPFENQDIHSASA [LPIN1]	-0.0904	0.0583
MPAIAVLAAAAAAWCFLQVESRHLDALAGGAGPNHGNFLDNDQWLSTVSQYDRDKYWNRFRDDDYFRNWNPNKPFDQALDPSKDPCLKVKCSPHKVCVTQDYQTALCVSRKHLLPRQKKGNVAQKHWVGPSNLVKCKPCPVAQSAMVCGSDGHSYTSKCKLEFHACSTGKSLATLCDGPCPCLPEPEPPKHKAERSACTDKELRNLASRLKDWFGALHEDANRVIKPTSSNTAQGRFDTSILPICKDSLGWMFNKLDMNYDLLLDPSEINAIYLDKYEPCIKPLFNSCDSFKDGKLSNNEWCYCFQKPGGLPCQNEMNRIQKLSKGKSLLGAFIPRCNEEGYYKATQCHGSTGQCWCVDKYGNELAGSRKQGAVSCEEEQETSGDFGSGGSVVLLDDLEYERELGPKDKEGKLRVHTRAVTEDDEDEDDDKEDEVGYIW [SPOCK1]	0.345	-0.59
MPAPPCASCHAARAALRRPLSGQALCGACFCAAFEAEVLHTVLAGRLLPPGAVVAVGASGGKDSTVLAHVLRALAPRLGISLQLVAVDEGIGGYRDAALAAVRRQAARWELPLTVVAYEDLFGGWTMDAVARSTAGSGRSRSCCTFCGVLRRRALEEGARRVGATHIVTGHNADDMAETVLMNFLRGDAGRLARGGGLGSPGEGGALPRCRPLQFASQKEVVLYAHFRRLDYFSEECVYAPEAFRGHARDLLKRLEAARPSAVLDLVHSAERLALAPAARPPRPGACSRCGALASRALCQACALLDGLNRGRPRLAIGKGRRGLDEEATPGTPGDPARPPASKAVPTF [CTU1]	0.0895	0.107
MPGRHVSRVRALYKRVLQLHRVLPPDLKSLGDQYVKDEFRRHKTVGSDEAQRFLQEWEVYATALLQQANENRQNSTGKACFGTFLPEEKLNDFRDEQIGQLQELMQEATKPNRQFSISESMKPKF [SDHAF3]	0.134	0.106
MPKRSCPFADVAPLQLKVRVSQRELSRGVCAERYSQEVFEKTKRLLFLGAQAYLDHVWDEGCAVVHLPESPKPGPTGAPRAARGQMLIGPDGRLIRSLGQASEADPSGVASIACSSCVRAVDGKAVCGQCERALCGQCVRTCWGCGSVACTLCGLVDCSDMYEKVLCTSCAMFET [SIVA1]	-0.098	-0.0737
MPLGLKPTCSVCKTTSSSMWKKGAQGEILCHHCTGRGGAGSGGAGSGAAGGTGGSGGGGFGAATFASTSATPPQSNGGGGGKQSKQEIHRRSARLRNTKYKSAPAAEKKVSTKGKGRRHIFKLKNPIKAPESVSTIITAESIFYKGVYYQIGDVVSVIDEQDGKPYYAQIRGFIQDQYCEKSAALTWLIPTLSSPRDQFDPASYIIGPEEDLPRKMEYLEFVCHAPSEYFKSRSSPFPTVPTRPEKGYIWTHVGPTPAITIKESVANHL [GATAD1]	0.25	-0.0455
